T1: GST-BRAKJK (tomato (Solanum lycopersicum), labeled with RED-NHS)
T1 chain: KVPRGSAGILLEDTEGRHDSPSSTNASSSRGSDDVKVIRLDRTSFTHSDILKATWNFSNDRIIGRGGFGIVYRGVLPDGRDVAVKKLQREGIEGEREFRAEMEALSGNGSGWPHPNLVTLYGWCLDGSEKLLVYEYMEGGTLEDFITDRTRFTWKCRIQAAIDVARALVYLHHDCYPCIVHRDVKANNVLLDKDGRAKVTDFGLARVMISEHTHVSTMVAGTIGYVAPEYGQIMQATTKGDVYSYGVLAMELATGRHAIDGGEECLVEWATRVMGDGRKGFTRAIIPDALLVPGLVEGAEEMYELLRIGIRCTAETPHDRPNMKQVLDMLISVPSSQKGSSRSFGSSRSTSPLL

T2: GST-PSKR1JK (tomato (Solanum lycopersicum), UniProt A0A3Q7E8N4 1-1013, labeled with RED-NHS)
T2 chain: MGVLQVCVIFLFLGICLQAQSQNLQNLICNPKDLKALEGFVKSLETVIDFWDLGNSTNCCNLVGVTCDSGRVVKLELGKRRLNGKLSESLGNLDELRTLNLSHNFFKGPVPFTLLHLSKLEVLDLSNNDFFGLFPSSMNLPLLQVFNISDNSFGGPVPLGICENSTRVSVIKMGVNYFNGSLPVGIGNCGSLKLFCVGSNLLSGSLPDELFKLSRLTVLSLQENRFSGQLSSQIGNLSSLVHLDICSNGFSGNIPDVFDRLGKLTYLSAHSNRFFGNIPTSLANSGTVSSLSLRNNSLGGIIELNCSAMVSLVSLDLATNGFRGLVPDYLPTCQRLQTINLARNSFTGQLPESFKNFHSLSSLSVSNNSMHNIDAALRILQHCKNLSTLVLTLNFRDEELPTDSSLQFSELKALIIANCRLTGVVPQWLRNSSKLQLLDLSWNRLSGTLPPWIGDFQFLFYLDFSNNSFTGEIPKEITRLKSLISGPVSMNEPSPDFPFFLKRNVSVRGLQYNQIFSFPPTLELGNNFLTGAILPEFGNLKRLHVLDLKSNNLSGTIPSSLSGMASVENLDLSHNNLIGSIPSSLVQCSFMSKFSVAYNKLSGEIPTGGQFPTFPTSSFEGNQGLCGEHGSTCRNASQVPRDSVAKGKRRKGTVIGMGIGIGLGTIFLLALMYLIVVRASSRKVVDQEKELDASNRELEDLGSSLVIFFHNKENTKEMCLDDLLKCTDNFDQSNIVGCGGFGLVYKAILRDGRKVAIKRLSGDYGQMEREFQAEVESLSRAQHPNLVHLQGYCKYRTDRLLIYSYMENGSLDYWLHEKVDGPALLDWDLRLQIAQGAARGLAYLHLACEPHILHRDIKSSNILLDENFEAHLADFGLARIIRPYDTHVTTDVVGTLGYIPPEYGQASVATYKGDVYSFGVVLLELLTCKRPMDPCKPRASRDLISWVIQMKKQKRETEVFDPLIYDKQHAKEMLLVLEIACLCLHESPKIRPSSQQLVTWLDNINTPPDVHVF


Target: T1, GST-BRAKJK
Experiment: MST

Kd | Binder
1800 nM | PSKR1JK^Y843F (phospho-mutated) (domain or fragment) VRASSRKVVDQEKELDASNRELEDLGSSLVIFFHNKENTKEMCLDDLLKCTDNFDQSNIVGCGGFGLVYKAILRDGRKVAIKRLSGDYGQMEREFQAEVESLSRAQHPNLVHLQGYCKYRTDRLLIYSYMENGSLDYWLHEKVDGPALLDWDLRLQIAQGAARGLAFLHLACEPHILHRDIKSSNILLDENFEAHLADFGLARIIRPYDTHVTTDVVGTLGYIPPEYGQASVATYKGDVYSFGVVLLELLTCKRPMDPCKPRASRDLISWVIQMKKQKRETEVFDPLIYDKQHAKEMLLVLEIACLCLHESPKIRPSSQQLVTWLDNINTPPDVHVF
2270 nM | PSKR1JK^T890A (phospho-mutated) (domain or fragment) VRASSRKVVDQEKELDASNRELEDLGSSLVIFFHNKENTKEMCLDDLLKCTDNFDQSNIVGCGGFGLVYKAILRDGRKVAIKRLSGDYGQMEREFQAEVESLSRAQHPNLVHLQGYCKYRTDRLLIYSYMENGSLDYWLHEKVDGPALLDWDLRLQIAQGAARGLAYLHLACEPHILHRDIKSSNILLDENFEAHLADFGLARIIRPYDTHVTADVVGTLGYIPPEYGQASVATYKGDVYSFGVVLLELLTCKRPMDPCKPRASRDLISWVIQMKKQKRETEVFDPLIYDKQHAKEMLLVLEIACLCLHESPKIRPSSQQLVTWLDNINTPPDVHVF
171 nM | PSKR1JK, wild type (ligand of the MST) (domain or fragment) VRASSRKVVDQEKELDASNRELEDLGSSLVIFFHNKENTKEMCLDDLLKCTDNFDQSNIVGCGGFGLVYKAILRDGRKVAIKRLSGDYGQMEREFQAEVESLSRAQHPNLVHLQGYCKYRTDRLLIYSYMENGSLDYWLHEKVDGPALLDWDLRLQIAQGAARGLAYLHLACEPHILHRDIKSSNILLDENFEAHLADFGLARIIRPYDTHVTTDVVGTLGYIPPEYGQASVATYKGDVYSFGVVLLELLTCKRPMDPCKPRASRDLISWVIQMKKQKRETEVFDPLIYDKQHAKEMLLVLEIACLCLHESPKIRPSSQQLVTWLDNINTPPDVHVF

Target: T2, GST-PSKR1JK
Experiment: MST

Kd | Binder
196 nM | BRAKJK, wild type (ligand of the MST) (domain or fragment) MPGRLVCGDSIETDKQLLLNLKSFLKEQNPVDKGFKYNHWNPTDLSPCRWPGISCTTSINRVTGIDLSESNLAGKLFNNFSAMTELNSLDLSKNTFSESIPSDLGWCRNLKFLNLSHNIIVGDLNLTGLNKLEVLDLTMNRIHGLTIPEICDNLAVANISNNNFTSESGFEFSHCKKLKYLDLSYNYLTGNLSFGLDMLNMFSASHNNLSGSLPSWIFTQNCSLQGLDLSENRFFGELPTSIANCKRLVELNLWGNSFSGSIPRGIGSVHSLKELCLGSNNFSSDVPDTLSGLNKLVFLDLSRNNFGGEIQEIFGQLTQVRFLVLHGNSYTGGIVSSGIPNLVNLSRLDLSDNHFSGPLPVEISEMKGLEFLILAHNQFSGNIPSEYGDLTALQAVDLSSNRINGSIPPSFGKLRSLLWLMLANNSLSGEIPSELGNCSSLLWLNLANNQLTGPIPPQLASIGADPMLTFLLNRGKEKLTASPGDCFAMRRWIPADYPPFSFIYPLLTGKSCRILGDKLFMGDGLMPLCEPGSNVRKNQVPGYIQLSDNKLSGEIPPEISNMKKMSMMHLGANEFSGRLPSEIGQLHLVVLNVSQNKFSGEIPKQIGHLKCLLNLDLSFNNFSGPFPVSFSNLHDLSKFNISYNQYIYGAVPETGQLLTFDKSSFLGNPLLRLPSFMHNSKNNTERNTNDTHKKPKKVGALLVIVVLVLAFLVCGVMSLVVCLLIKVPRGSAGILLEDTEGRHDSPSSTNASSSRGSDDVKVIRLDRTSFTHSDILKATWNFSNDRIIGRGGFGIVYRGVLPDGRDVAVKKLQREGIEGEREFRAEMEALSGNGSGWPHPNLVTLYGWCLDGSEKLLVYEYMEGGTLEDFITDRTRFTWKCRIQAAIDVARALVYLHHDCYPCIVHRDVKANNVLLDKDGRAKVTDFGLARVMISEHTHVSTMVAGTIGYVAPEYGQIMQATTKGDVYSYGVLAMELATGRHAIDGGEECLVEWATRVMGDGRKGFTRAIIPDALLVPGLVEGAEEMYELLRIGIRCTAETPHDRPNMKQVLDMLISVPSSQKGSSRSFGSSRSTSPLL
6900 nM | BRAKJK^Y1048F (phospho-dead) (domain or fragment) KVPRGSAGILLEDTEGRHDSPSSTNASSSRGSDDVKVIRLDRTSFTHSDILKATWNFSNDRIIGRGGFGIVYRGVLPDGRDVAVKKLQREGIEGEREFRAEMEALSGNGSGWPHPNLVTLYGWCLDGSEKLLVYEYMEGGTLEDFITDRTRFTWKCRIQAAIDVARALVYLHHDCYPCIVHRDVKANNVLLDKDGRAKVTDFGLARVMISEHTHVSTMVAGTIGYVAPEYGQIMQATTKGDVYSYGVLAMELATGRHAIDGGEECLVEWATRVMGDGRKGFTRAIIPDALLVPGLVEGAEEMFELLRIGIRCTAETPHDRPNMKQVLDMLISVPSSQKGSSRSFGSSRSTSPLL
2430 nM | BRAKJK^T1027A (phospho-dead; printed BRAKJK^T1024A in the results) (domain or fragment) KVPRGSAGILLEDTEGRHDSPSSTNASSSRGSDDVKVIRLDRTSFTHSDILKATWNFSNDRIIGRGGFGIVYRGVLPDGRDVAVKKLQREGIEGEREFRAEMEALSGNGSGWPHPNLVTLYGWCLDGSEKLLVYEYMEGGTLEDFITDRTRFTWKCRIQAAIDVARALVYLHHDCYPCIVHRDVKANNVLLDKDGRAKVTDFGLARVMISEHTHVSTMVAGTIGYVAPEYGQIMQATTKGDVYSYGVLAMELATGRHAIDGGEECLVEWATRVMGDGRKGFARAIIPDALLVPGLVEGAEEMYELLRIGIRCTAETPHDRPNMKQVLDMLISVPSSQKGSSRSFGSSRSTSPLL
